According to PMC11705640, “Tubulointerstitial nephritis antigen-like 1 promotes the progression of liver fibrosis after HCV eradication with direct-acting antivirals” (International Journal of Biological Sciences, 2025):

Target: T1, recombinant human TINAGL1 protein (tubulointerstitial nephritis antigen-like 1), C-6×His (human, UniProt Q9GZM7 22-467)
T1 construct: tubulointerstitial nephritis antigen-like 1 (TINAGL1), human, recombinant; Bought protein; Held on the Ni-NTA chip by its C-terminal His tag; also called rhTINAGL1; source: bought: Novoprotein (Cat# CB22); not shown: His6, C-terminal, kept
T1 sequence (looked up): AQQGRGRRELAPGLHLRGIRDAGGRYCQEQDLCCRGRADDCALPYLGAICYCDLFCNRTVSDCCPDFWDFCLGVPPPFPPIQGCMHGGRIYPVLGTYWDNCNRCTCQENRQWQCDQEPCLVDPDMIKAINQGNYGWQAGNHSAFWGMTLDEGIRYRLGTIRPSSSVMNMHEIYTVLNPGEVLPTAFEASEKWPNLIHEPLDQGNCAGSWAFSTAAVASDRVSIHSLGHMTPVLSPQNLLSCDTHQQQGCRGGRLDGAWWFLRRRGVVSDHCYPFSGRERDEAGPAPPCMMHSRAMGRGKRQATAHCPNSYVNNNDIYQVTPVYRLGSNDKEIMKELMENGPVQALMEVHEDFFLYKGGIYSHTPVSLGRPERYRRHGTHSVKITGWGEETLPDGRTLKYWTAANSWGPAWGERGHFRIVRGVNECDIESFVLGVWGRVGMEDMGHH
Experiment: SPR; rhTINAGL1 (C-6×His) immobilised on Ni-NTA chip (Reichert 4SPR, 40 mM nickel sulfate); dilution series of rhPDGF-BB in PBST injected at 62.5 μL/min; association 4 min, dissociation 5 min; TraceDrawer v1.8.1
Conditions: both partners purified

B1: recombinant human PDGF-BB (platelet-derived growth factor-BB) (ligand, UniProt P01127 82-190, looked up)
chain: SLGSLTIAEPAMIAECKTRTEVFEISRRLIDRTNANFLVWPPCVEVQRCSGCCNNRNVQCRPTQVQLRPVQVRKIEIVRKKPIFKKATVTLEDHLACKCETVAAARPVT
notes: platelet-derived growth factor subunit B, human, recombinant PDGF-BB; also called rhPDGF-BB; source: bought: Peprotech (Cat# 100-14B)
With B1 as the binder, how does the Kd read?
The Kd was 185 nM.
